Laboratory results as given in article PMC11574045, “A cofactor-induced repressive type of transcription factor condensation can be induced by synthetic peptides to suppress tumorigenesis” (The EMBO Journal, 2024).

B1: SMAD3 (protein, UniProt P84022 2-425, looked up)
Mothers against …: SSILPFTPPIVKRLLGWKKGEQNGQEEKWCEKAVKSLVKKLKKTGQLDELEKAITTQNVNTKCITIPRSLDGRLQVSHRKGLPHVIYCRLWRWPDLHSHHELRAMELCEFAFNMKKDEVCVNPYHYQRVETPVLPPVLVPRHTEIPAEFPPLDDYSHSIPENTNFPAGIEPQSNIPETPPPGYLSEDGETSDHQMNHSMDAGSPNLSPNPMSPAHNNLDLQPVTYCEPAFWCSISYYELNQRVGETFHASQPSMTVDGFTDPSNSERFCLGLLSNVNRNAAVELTRRHIGRGVRLYYIGGEVFAECLSDSAIFVQSPNCNQRYGWHPATVCKIPPGCNLKIFNNQEFAALLAQSVNQGFEAVYQLTRMCTIRMSFVKGWGAEYRRQTVTSTPCWIELHLNGPLQWLDKVLTQMGSPSIRCSSVS
B2: SMAD7 (protein, UniProt O15105 1-426, looked up)
Mothers against …: MFRTKRSALVRRLWRSRAPGGEDEEEGAGGGGGGGELRGEGATDSRAHGAGGGGPGRAGCCLGKAVRGAKGHHHPHPPAAGAGAAGGAEADLKALTHSVLKKLKERQLELLLQAVESRGGTRTACLLLPGRLDCRLGPGAPAGAQPAQPPSSYSLPLLLCKVFRWPDLRHSSEVKRLCCCESYGKINPELVCCNPHHLSRLCELESPPPPYSRYPMDFLKPTADCPDAVPSSAETGGTNYLAPGGLSDSQLLLEPGDRSHWCVVAYWEEKTRVGRLYCVQEPSLDIFYDLPQGNGFCLGQLNSDNKSQLVQKVRSKIGCGIQLTREVDGVWVYNRSSYPIFIKSATLDNPDSRTLLVHKVFPGFSIKAFDYEKAYSLQRPNDHEFMQQPWTGFTVQISFVKGWGQCYTRQFISSCPCWLEVIFNSR
B3: SMAD4 (protein, UniProt Q13485 1-552, looked up)
Mothers against …: MDNMSITNTPTSNDACLSIVHSLMCHRQGGESETFAKRAIESLVKKLKEKKDELDSLITAITTNGAHPSKCVTIQRTLDGRLQVAGRKGFPHVIYARLWRWPDLHKNELKHVKYCQYAFDLKCDSVCVNPYHYERVVSPGIDLSGLTLQSNAPSSMMVKDEYVHDFEGQPSLSTEGHSIQTIQHPPSNRASTETYSTPALLAPSESNATSTANFPNIPVASTSQPASILGGSHSEGLLQIASGPQPGQQQNGFTGQPATYHHNSTTTWTGSRTAPYTPNLPHHQNGHLQHHPPMPPHPGHYWPVHNELAFQPPISNHPAPEYWCSIAYFEMDVQVGETFKVPSSCPIVTVDGYVDPSGGDRFCLGQLSNVHRTEAIERARLHIGKGVQLECKGEGDVWVRCLSDHAVFVQSYYLDREAGRAPGDAVHKIYPSAYIKVFDLRQCHRQMQQQAATAQAAAAAQAAAVAGNIPGPGSVGGIAPAISLSAAAGIGVDDLRRLCILRMSFVKGWGPDYPRQSIKETPCWIEIHLHRALQLLDEVLHTMPIADPQPLD
B4: SIX6 (protein, UniProt Q9QZ28 1-246, looked up)
Homeobox protein SIX6: MFQLPILNFSPQQVAGVCETLEESGDVERLGRFLWSLPVAPAACEALNKNESVLRARAIVAFHGGNYRELYHILENHKFTKESHAKLQALWLEAHYQEAEKLRGRPLGPVDKYRVRKKFPLPRTIWDGEQKTHCFKERTRHLLREWYLQDPYPNPSKKRELAQATGLTPTQVGNWFKNRRQRDRAAAAKNRLQQQVLSQGPGRVLRSEGEGTPEVLGVASSPAASLSSKAATSAISITSSDSECDI

System: HEK293FT cells transfected with TF library
Experiment: Screening of TF condensates based on fluorescent puncta
Assay type: cell-based
Conditions: Figure 1B numerical data; TF library screen, one value per transcriptional factor
Method in brief: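 Condensate formation is scored as Alexa 488-labelled puncta after Flag- or GAL4-tag immunostaining of fixed HEK293FT cells expressing individual TFs, with a 12 h glucose-free or glucose-containing culture preceding fixation.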

Molecule | Z score of condensed fraction
B1 | -0.8472
B2 | -1.192
B3 | -0.5517
B4 | 1.297
